The text below walks through data of paper doi:10.1101/2023.10.26.564194 (bioRxiv, 2023).

By Kd is commonly meant a measure of binding affinity in units of concentration.

Test [1] deals with T1, recombinant His-tagged NRF2, full length (UniProt Q16236 1-605).
T1 sequence: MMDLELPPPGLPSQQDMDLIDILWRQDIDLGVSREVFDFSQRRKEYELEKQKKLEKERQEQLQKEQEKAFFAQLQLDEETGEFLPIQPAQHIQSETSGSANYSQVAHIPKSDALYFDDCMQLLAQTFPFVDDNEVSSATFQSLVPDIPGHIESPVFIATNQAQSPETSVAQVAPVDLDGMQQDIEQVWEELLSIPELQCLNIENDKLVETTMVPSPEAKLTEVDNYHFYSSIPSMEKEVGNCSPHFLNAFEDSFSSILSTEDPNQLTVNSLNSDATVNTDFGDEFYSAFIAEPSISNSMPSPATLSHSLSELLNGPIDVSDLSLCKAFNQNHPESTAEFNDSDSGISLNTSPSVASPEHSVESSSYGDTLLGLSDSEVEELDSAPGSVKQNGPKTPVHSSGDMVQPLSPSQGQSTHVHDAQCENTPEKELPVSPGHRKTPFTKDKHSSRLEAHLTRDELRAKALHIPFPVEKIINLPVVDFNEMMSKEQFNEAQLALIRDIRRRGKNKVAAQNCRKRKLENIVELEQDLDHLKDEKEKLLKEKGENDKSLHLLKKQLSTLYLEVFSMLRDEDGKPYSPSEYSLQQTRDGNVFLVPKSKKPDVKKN
Nature of the test: MST.

Test [2] deals with T2, recombinant His-Tag NRF2 truncation mutant Δ205-400 amino acids (Neh6/7 domains deleted) (UniProt Q16236 1-605, Δ205-400).
T2 sequence: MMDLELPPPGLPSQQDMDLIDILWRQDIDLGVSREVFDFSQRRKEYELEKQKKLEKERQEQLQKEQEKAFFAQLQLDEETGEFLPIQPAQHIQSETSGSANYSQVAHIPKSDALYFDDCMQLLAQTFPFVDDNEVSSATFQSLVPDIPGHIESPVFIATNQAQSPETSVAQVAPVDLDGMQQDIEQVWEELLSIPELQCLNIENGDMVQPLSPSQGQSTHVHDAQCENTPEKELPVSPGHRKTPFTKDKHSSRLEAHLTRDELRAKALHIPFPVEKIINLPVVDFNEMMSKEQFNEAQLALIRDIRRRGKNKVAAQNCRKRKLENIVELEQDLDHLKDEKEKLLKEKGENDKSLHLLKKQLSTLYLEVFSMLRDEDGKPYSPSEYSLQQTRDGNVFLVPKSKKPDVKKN
Nature of the test: pull-down.

B1: recombinant αB-crystallin (natural protein)
chain: MDIAIHHPWIRRPFFPFHSPSRLFDQFFGEHLLESDLFPTSTSLSPFYLRPPSFLRAPSWFDTGLSEMRLEKDRFSVNLDVKHFSPEELKVKVLGDVIEVHGKHEERQDEHGFISREFHRKYRIPADVDPLTITSSLSSDGVLTVNGPRKQVSGPERTIPITREEKPAVTAAPKK
As to B1, the Kd in test [1] was 859 ± 70.1 nM. Further, the binding result in test [2] was “binds”.
